Measured values reported in paper PMC5714165 (Nucleic Acids Research, 2017).

Legend:
[1] = molecular target: eIF2α-NTD_(S51D) (phosphomimetic N-terminal domain of eIF2α, aa 1–184) (human); assay: fluorescence polarisation
eIF2Bβ = molecular target: T1, eIF2Bβ (human, UniProt P49770 1-351); assay: SEC
T1 sequence: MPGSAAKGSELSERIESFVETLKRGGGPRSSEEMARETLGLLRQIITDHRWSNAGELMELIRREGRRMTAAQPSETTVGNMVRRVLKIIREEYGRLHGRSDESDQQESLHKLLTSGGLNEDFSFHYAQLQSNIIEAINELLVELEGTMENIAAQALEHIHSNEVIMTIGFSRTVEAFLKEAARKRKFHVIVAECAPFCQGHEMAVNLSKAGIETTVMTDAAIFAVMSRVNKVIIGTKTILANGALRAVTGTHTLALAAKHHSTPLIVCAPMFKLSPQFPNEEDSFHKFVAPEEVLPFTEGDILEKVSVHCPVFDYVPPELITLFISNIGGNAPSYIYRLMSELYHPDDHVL

For “eIF2Breg (eIF2B regulatory subcomplex of eIF2Bα, β and δ), reconstituted from individual subunits (from UniProt Q14232;P49770;Q9UI10)”, the fold higher affinity than for WT eIF2α-NTD [1] was < 2 fold.

B1: eIF2Bα_(I301E/L305D) mutant (designated as eIF2Bα in the paper) (natural protein)
chain: MDDKELIEYFKSQMKEDPDMASAVAAIRTLLEFLKRDKGETIQGLRANLTSAIETLCGVDSSVAVSSGGELFLRFISLASLEYSDYSKCKKIMIERGELFLRRISLSRNKIADLCHTFIKDGATILTHAYSRVVLRVLEAAVAAKKRFSVYVTESQPDLSGKKMAKALCHLNVPVTVVLDAAVGYIMEKADLVIVGAEGVVENGGIINKIGTNQMAVCAKAQNKPFYVVAESFKFVRLFPLNQQDVPDKFKYKADTLKVAQTGQDLKEEHPWVDYTAPSLITLLFTDLGVLTPSAVSDELEKLYD
B1: binds (eIF2Bβ).
